From patent US20150218261A1

Tests used:
Aβ(1-42) fibril (human) = assay: dot blot, antigen dilution series on nitrocellulose, antibody 0.2 µg/ml, densitometry
[1] = target: Aβ(1-42) globulomer (human); assay: as above
sAPPα = sAPPα (UniProt P05067); assay: dot blot, antigen dilution series on nitrocellulose (first dot 1 pmol), antibody 0.2 µg/ml, densitometry

Chain of Aβ(1-42) fibril (human) (peptide, as listed by the source): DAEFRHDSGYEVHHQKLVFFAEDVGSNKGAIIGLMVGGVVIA
Chain of Aβ(1-42) globulomer (human) (peptide, as listed by the source): as above

dot blot quantification (relation between recognition of Aβ(20-42) globulomer and the respective Aβ form) (Aβ(1-42) fibril (human)): > 10000 | dot blot quantification (relation between recognition of Aβ(20-42) globulomer and the respective Aβ form) [1]: > 10000 | dot blot quantification (relation between recognition of Aβ(20-42) globulomer and the respective Aβ form) (sAPPα): > 100
B1: humanized monoclonal anti-Aβ antibody 4D10hum#1 (antibody, human IgG1, kappa, V domains shown)
VH: EVQLVESGGGLVQPGGSLRLSCAVSGFTLSSYGVHWVRQAPGKGLEWLGVIWRGGRIDYNAAFMSRLTISKDNSKSTVYLQMNSLRAEDTAVYYCARNSDVWGQGTTVTVSS
VL: DVVMTQTPLSLPVTPGQPASISCKSSQSLLDIDGKTYLNWLLQKPGQSPQRLIYLVSKLDSGVPDRFSGSGSGTDFTLKISRVEAEDVGVYYCWQGTHFPYTFGQGTKLEIKR
